Test results reported in the supplement of paper PMC12764529.
± gives the half width of the 95% confidence interval.

How the values were obtained:
[1] = folding stability dG unfold from trypsin proteolysis; higher = more stable
Summary of the method: (§1)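 How resistant each design was to proteolysis was captured as K50, inferred by Bayesian fitting of sequencing counts. Unfolding free energy was then derived relative to a sequence-predicted unfolded-state K50 and a shared folded-state K50, per protease or combined. Digestion used trypsin and chymotrypsin at 11 threefold-diluted concentrations plus a no-protease condition, on mini-proteins under 80 residues without cysteine in a PA-tagged cDNA display construct. Designs were kept only when AlphaFold2 dimer inter-PAE was above 15.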

[2] = folding stability dG unfold (combined trypsin and chymotrypsin); higher = more stable
Summary of the method: as §1

[3] = folding stability dG unfold from chymotrypsin proteolysis; higher = more stable
Summary of the method: as §1

| Sequence | folding stability dG unfold [1] | folding stability dG unfold [2] | folding stability dG unfold [3] |
| --- | --- | --- | --- |
| PPLKIKMERYPNGMMKIDKIEVPNDGSIKLTLKFPNNGRKIERTIPPNAPPGQEKEIWFPFPNGFYRLKIES [r1_43_TrROS] | 0.0375 ± 0.24 kcal/mol | 0.32 ± 0.23 kcal/mol | 0.291 ± 0.26 kcal/mol |
| PSVVYLVLRRPEGGPVRSFRFPVPDRGEPGFEEVLDLIERVTGVSRGALRKNVRIVPVPETGDVLVVADLSS [r1_285_TrMRF] | 2.052 ± 0.014 kcal/mol | 1.88 ± 0.065 kcal/mol | 1.52 ± 0.058 kcal/mol |
| PVKVIEIRVEDPEKTAEEILAELRKKLPEEVKELRLFIVTPDGRVREIEPGETLADLLKPGDTVRIVVVERS [r1_56_TrROS_Hall] | 4.81 ± 0.34 kcal/mol | > 6 kcal/mol | 5.66 ± 0.45 kcal/mol |
| PWVMIPIRVDDPNMTIREIANEVRKALPPGNKNLKISIMWGDGRRYEIDPGETLKDHFPPGDEFHIMVRLPS [r1_56_TrROS] | 1.65 ± 0.02 kcal/mol | 1.55 ± 0.048 kcal/mol | 1.3 ± 0.086 kcal/mol |
| QEIPIKELIKEALENGRPIVFPNGMEITDINPDGSITVKMPYYNPDDPGQPVQPVEMQIKIDEDGRIEVEFS [r1_284_TrROS] | 0.96 ± 0.12 kcal/mol | 1.45 ± 0.12 kcal/mol | 1.76 ± 0.054 kcal/mol |
| SAAEKLPDGTIVIKLTEEEYKKLTEEEIEKIKEELKKEYPENVTVEIKPTKAKKIPTEPFEKGEKYNESSAG [r14_312_JUSTAS] | -0.313 ± 0.37 kcal/mol | < -1 kcal/mol | -0.267 ± 0.37 kcal/mol |
| SAAKKVVTVPLPFLAPENSITPEELVALAVAAFEKLFPGAKIEKFEFNMPVFRLPGDGVIVVVEITDTSSAG [r14_145_TrMRF] | 2.04 ± 0.041 kcal/mol | 2.32 ± 0.088 kcal/mol | 2.411 ± 0.024 kcal/mol |
| SADALKKILSNIHSVEFDPKWGWVTIHFPNKSKIKKALKEGFPRVEMQEDPDGHMMIRIRVPKLPPGQPSAG [r14_115_TrROS] | 1.82 ± 0.057 kcal/mol | 2.35 ± 0.2 kcal/mol | 2.65 ± 0.043 kcal/mol |
| SADIKIDVTYRRSPGEGRYTMTVRVELPDGKKLAEIPITMPADDPGMSPRQMREWARPIVKKLAKEGLISAG [r14_120_TrROS] | 0.537 ± 0.12 kcal/mol | 0.889 ± 0.08 kcal/mol | 1.02 ± 0.1 kcal/mol |
| SADKILVRVVFNLGGPPVELTLEADSPEELVEATIAVIKPLFPDADIREVKLFVYNPNTDEVEEFTLTASAG [r14_54_TrMRF] | 2.44 ± 0.043 kcal/mol | 3.06 ± 0.059 kcal/mol | 3.341 ± 0.021 kcal/mol |
| SADKVEIEFPMPESGHPFRIVIDKDGKVEIRHPNNGEEYEFKINGKPIRFPPNMSWDDAIDQLKDALKKSAG [r14_561_TrROS] | 0.905 ± 0.075 kcal/mol | 0.897 ± 0.19 kcal/mol | 0.645 ± 0.2 kcal/mol |
| SADKVMIMFRSPQTFRRILREALKTDKPVYLMFPPKWMDELKELGFPNVKIEPQKNPNGGPYYMFELPVSAG [r14_127_TrROS] | 1.83 ± 0.044 kcal/mol | 1.79 ± 0.18 kcal/mol | 1.75 ± 0.12 kcal/mol |
| SADLKIDDVTVQHYNDYLYVSAEITFPNGWEITVHWMIDPNGKIIDMMIEIRPPPPPVDEEDQEKAQKKSAG [r14_171_TrROS] | 2.47 ± 0.22 kcal/mol | 3.05 ± 0.25 kcal/mol | 3.35 ± 0.14 kcal/mol |
| SADNYFIRIKHKLNGKPRERTYPIDSPEEALDAIKDELQPHFPGAPIDKVKIDVFNPNNGEWQEITLKISAG [r14_54_TrROS] | -0.0876 ± 0.11 kcal/mol | 0.256 ± 0.13 kcal/mol | 0.373 ± 0.13 kcal/mol |
| SADPDEEVTLTLTLPASASPEEVEKVRDEIREAFESLGLEVDVKVEADPETGEVPVTVTLKKEALEKLGSAG [r14_602_TrMRF] | 0.834 ± 0.043 kcal/mol | 1.73 ± 0.18 kcal/mol | 1.91 ± 0.06 kcal/mol |
| SADPSRGMTLTVETKELPGKGLLLVTITTSGTVEEALAYVEELAKELGAEIEILEVNENTIVVKLKVLKSAG [r14_172_JUSTAS] | 1.97 ± 0.026 kcal/mol | 2.49 ± 0.045 kcal/mol | 2.766 ± 0.014 kcal/mol |
| SADPVYYKITITLYIKGDSSSTKTFEIVVPAGDVEKAKEEAIKKIKEETGKPILKVETEVTKVPPEELLSAG [r14_104_JUSTAS] | 3.89 ± 0.4 kcal/mol | 4.35 ± 0.17 kcal/mol | 4.35 ± 0.13 kcal/mol |
| SAEEPSLEELLAAIEEEAEARAREFLERHPDVPPGAVLKVPVTLTYPLRLGDVEYPVTFEAEVDVVVPASAG [r14_486_TrMRF] | 1.74 ± 0.041 kcal/mol | 1.95 ± 0.1 kcal/mol | 2.01 ± 0.086 kcal/mol |
| SAEEVTVKLELEIKIKVSEEEAKALAEELARALKEAGEVKITVEPVEKDEDGYYRIRVTIEVKIKKEDLSAG [r14_413_TrROS_Hall] | 3.57 ± 0.12 kcal/mol | 4.02 ± 0.095 kcal/mol | 4.24 ± 0.11 kcal/mol |
| SAEIAELLKELGFEVEVEKVEVKEVEVTVTDENGKKYKVKFVEVKITVKVTNPDGSKRTFSLDELKKLLSAG [r14_578_TrROS_Hall] | 2.84 ± 0.14 kcal/mol | 3.45 ± 0.13 kcal/mol | 3.73 ± 0.11 kcal/mol |
| SAEKLKKILENIEKVEFDEETGEVYITVKSVEEAEKALKELFPDVEIEKDEDGNYRFRIRVEKLPEELLSAG [r14_115_TrROS_Hall] | 3.66 ± 0.12 kcal/mol | 4.4 ± 0.084 kcal/mol | 4.68 ± 0.082 kcal/mol |
| SAELTIEITVPPGKSVEEVLAEAKALAEELGLEIVEVRVERDENGEVRVTVVIKLPEELTEEQRKALLESAG [r14_110_TrROS_Hall] | 3.06 ± 0.17 kcal/mol | 3.02 ± 0.21 kcal/mol | 2.89 ± 0.13 kcal/mol |
| SAEPEVEYVVIELEVTIELAPGQEAPTADEIAEALRAALEAAGAEITSVEVEVRDGQVTVRVTIVLPKKASA [r9_1134_TrROS_Hall] | 3.53 ± 0.086 kcal/mol | 3.6 ± 0.16 kcal/mol | 3.51 ± 0.17 kcal/mol |
| SAEPPWYWIIKIEFPNGKPIVFMMDDPEEARERFEEKLRKEFPDGMKIESIPITPNDMDSPEEALERIKSAG [r14_900_TrROS] | 1.8 ± 0.27 kcal/mol | 1.75 ± 0.48 kcal/mol | 1.62 ± 0.16 kcal/mol |
| SAETTTETKVEEITLEDKKATINITTYSDGSTEATITIYGNDPKVKEKVKEYIKKKDPNIKITKIETKESAG [r14_611_JUSTAS] | 1.85 ± 0.083 kcal/mol | 2.92 ± 0.093 kcal/mol | 3.25 ± 0.043 kcal/mol |
| SAETVVIPIEAPEDEILAAIKALIDANPDVKITITYADGEKKEITLPDGTKITIERLPDGTLLITVEKVSAG [r14_807_TrROS_Hall] | 3.19 ± 0.23 kcal/mol | 2.49 ± 0.17 kcal/mol | 1.74 ± 0.066 kcal/mol |
